{
  "source": "paper PMC10711807",
  "about": "(The Journal of Cell Biology, 2023)",
  "binders": {"B1": {"name": "GST-BLK (B lymphoid tyrosine kinase), recombinant from bacteria (enzyme)", "chain": "not shown", "modifications": "autophosphorylated as purified (Fig. S5 C); sites not told for this sample"}},
  "biological_target": "TOLLIP, recombinant from bacteria, biotinylated (human, UniProt Q9H0E2 1-274, biotin (biotinylated TOLLIP; site not told))",
  "assay": "BLI",
  "data": [
    {"binder": "B1", "values": [
      {"measurement": "Kd", "result": "~8.39", "unit": "nM"}
    ]}
  ]
}
